Experimental data: patent US20220144953A1 (published 2022)

Target: Parent
Assay: antigen titration binding curve (Norm. RFU)

Kd: 165 nM
B1: Mouse (receptor)
chain: FKVTTPYSLYVCPEGQNATLTCRILGPVSKGHDVTIYKTWYLSSRGEVQMCKEHRPIRNFTLQHLQHHGSHLKANASHDQPQKHGLELASDHHGNFSITLRNVTPRDSGLYCCLVIELKNHHPEQRFYGSMELQVQAGKGSGSTCMASNEQDSDSITAA
